Assay results from patent US20210332145A1 (SINGLE CELL TECHNOLOGY, published 2021).

Tests used:
[1] = target: T1, human BCMA with a His tag (ACROBiosystems, Catalog No.: BCA-H522y) (human); experiment: ELISA, plate-coated human BCMA-His
T1 construct: Bought His-tagged recombinant protein; also called huBCMA-His; Recombinant human BCMA
T1 chain: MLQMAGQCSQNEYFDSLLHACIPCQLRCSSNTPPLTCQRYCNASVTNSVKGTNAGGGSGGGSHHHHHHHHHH
Procedure: (§1) The recombinantly expressed antibodies were used to assess binding activity to BCMA of different species origins by conventional ELISA according to the known art. Recombinant human BCMA, cyno BCMA, and mouse BCMA were coated onto ELISA plates to detect binding at serially diluted concentrations of the anti-BCMA antibody preparations.
(§2) The ability for antibodies of the present disclosure to bind human BCMA was measured with an ELISA assay. For the BCMA binding assay, a 96-well plate (Nunc) is coated with human BCMA with a His tag (ACROBiosystems, Catalog No.: AC108P1-180611F2-Bulk, SEQ ID NO:2) at 0.2 μg/well overnight at 4° C. Wells are blocked for 2 h with blocking buffer (PBS containing 3% bovine serum albumin). Wells are washed three times with PBS containing 0.1% Tween-20. Anti-human BCMA antibodies of the present disclosure or control IgG (100 μL) is then added and incubated at room temperature for 1 h. After washing, the plate is incubated with 100 μL of goat anti-mouse IgG Fcγ Fragment Specific-HRP conjugate (Jackson ImmunoResearch) at room temperature for 1 h. The plates are washed and then incubated with 100 μL of 3,3′,5,5′-tetra-methylbenzidine. The absorbance at 450 nm is read on a microplate reader. The half maximal effective concentration (EC50) is calculated using GraphPad Prism 6 software.
In experiments performed essentially as described above, anti-human BCMA antibodies of the present disclosure bind human BCMA with a His tag (ACROBiosystems, Beijing, China, Catalog No.: BCA-H522y, SEQ ID NO:2) with an EC50 values shown in Table 3.

[2] = target: T2, BCMA on cells (293T cells transfected with BCMA; H929, MM.1S and U266 cell lines expressing BCMA) (human, UniProt Q02223 1-184); experiment: flow cytometry, H929 cells
T2 construct: H929, MM.1S and U266 carry the native protein; also called B-cell Maturation Antigen; TNFRSF17
T2 sequence: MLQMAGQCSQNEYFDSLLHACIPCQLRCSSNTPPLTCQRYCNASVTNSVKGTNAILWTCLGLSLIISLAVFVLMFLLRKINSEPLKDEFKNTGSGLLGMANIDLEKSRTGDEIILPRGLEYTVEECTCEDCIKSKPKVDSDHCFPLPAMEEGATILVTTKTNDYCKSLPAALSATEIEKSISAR

[3] = target: T1, human BCMA with a His tag …; experiment: SPR, Biacore T200
Procedure: The binding affinity of select anti-BCMA was measured on a surface plasmon resonance (SPR) instrument, Biacore T200™, against human BCMA by a method known in the art.
In experiments performed essentially as described above, a subset of anti-human BCMA antibodies of the present disclosure bind human BCMA with a His tag (ACROBiosystems, Beijing, China, Catalog No.: BCA-H522y, SEQ ID NO:2) with affinity shown in Table 6.

[4] = target: T2, BCMA on cells (293T cells transfected …); experiment: flow cytometry, H929 cells; remark: listed apart in the source
Procedure: A cell line expressing BCMA, H929, was used to assess binding by anti-BCMA antibodies on the native protein on the cell surface by flow cytometry according to the known art. A subset of anti-human BCMA antibodies were assayed for binding to H929 and the fraction of cells bound the labeled antibody above background defined by control is shown in Table 8.

[5] = target: T3, mouse BCMA with a His tag (ACROBiosystems, Catalog No.: BCA-M52H3) (mouse); experiment: ELISA, plate-coated mouse BCMA-His
T3 construct: Bought His-tagged recombinant protein
T3 chain: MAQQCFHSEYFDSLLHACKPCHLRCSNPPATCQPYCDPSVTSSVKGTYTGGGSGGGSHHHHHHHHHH
Procedure: as §1, §2
In experiments performed essentially as described above, anti-human BCMA antibodies of the present disclosure bind mouse BCMA with a His tag (ACROBiosystems, Beijing, China, Catalog No.: BCA-M52H3, SEQ ID NO:109) with an EC50 values shown in Table 5.

[6] = target: T2, BCMA on cells (293T cells transfected …); experiment: flow cytometry, 293T cells transfected with BCMA, above parental 293T background

| Binder | EC50 [1] | Mean fluorescent intensity [2] | Kd [3] | koff [3] | kon [3] | Positive (%) [4] | EC50 [5] | Positive (%) [6] |
| --- | --- | --- | --- | --- | --- | --- | --- | --- |
| SCT-Aa08(h/h) (antibody, V domains shown, Full IgG format, chimeric: human IgG1 heavy chain constant region, human kappa light chain constant region) VH: QVQLQQSDAELVKPGASVKISCKVSGYTFIDHTIHWMKQRPEQGLEWIGYIYPRIDSSKCNEKFKDKATLTADKSSNTAYIQLNSLTSEDSAVYFCARWDYEGFDYWGQGTTLTVSS VL: DIVMTQSPATLSVTPGDRVSLSCRASQSISDYLHWYQQKSHESPRLLIKYASQSISGIPSRFSGSGSGSDFTLSINSVEPEDVGVYYCQNGHSFPPTFGSGTKLEIK | 3.74 ng/mL | 454 | 17.6 nM | 0.0592 s⁻¹ | 3.36e+06 M⁻¹ s⁻¹ | 92.5% | 0.377 µg/mL | 57.5% |
| SCT-Aa19(h/h) (antibody, V domains shown, Full IgG format, chimeric: human IgG1 heavy chain constant region, human kappa light chain constant region) VH: QVQLQQSGPELVKPGASVRISCKASGCTFTDYYIHWVKQRPGQGLEWIGWIYPGNLNSKFNEKFRDKATLTADNSSSTAYMQLSSLTSEDSAVYFCARYNYEGYFDYWGQGTTLTVSS VL: DIVMTQSPATLSVTPGDRVSLSCRASQSIADSLHWYQQKSHESPRLLIKYASHSISGIPSRFRGSGSGSDFTLSINSVEPEDVGVYYCQNGHSFPLTFGAGTKLELK | 3.38 ng/mL | 351 | 1.19 nM | 0.0062 s⁻¹ | 5.21e+06 M⁻¹ s⁻¹ | 85.1% |  | 51% |
| SCT-Aa11(h/h) (antibody, V domains shown, Full IgG format, chimeric: human IgG1 heavy chain constant region, human kappa light chain constant region) VH: QVQLQQSDAELVKPGASVKISCKVSGYTFTDHTIHWMKQRPEQGLEWIGYIFPRDGTTKFNEMFKGKATLTADKSSSTAYMELNSLTSEDSAVYFCARWDYEGFDYWGQGTTLTVSS VL: DIVMTQSPATLSVTPGDRVSLSCRASQSISDYLHWYQQKSHESPRLLIKYASQFISGIPSRFRGSGSGSDFTLSINSVEPEDVGVYYCQNGHSFPPTFGSGTKLEIK | 3.85 ng/mL | 179 | 47.1 nM | 0.113 s⁻¹ | 2.4e+06 M⁻¹ s⁻¹ | 53.7% |  | 34.9% |
| SCT-Aa10(h/h) (antibody, V domains shown, Full IgG format, chimeric: human IgG1 heavy chain constant region, human kappa light chain constant region) VH: QVQLQQSDAELVKPGASVKISCKVSGYTFTDHTIHWMKQRPEQGLEWIGYIFPRDGNTKYNEKFKGKATMTADKSSSTAYMQLNSLTSEDSAVYFCARWDYEGFDCWGQGTTLTVSS VL: DIVMTQSPATLSVTPGDRVSLSCRASQSISDYLHWYQQKSHESPRLLIKYASQSISGIPSRFSGSGSGSDFTLSINSVEPEDVGVYFCQNGHSFPPTFGSGTKLEIK | 2.86 ng/mL | 495 | 9.17 nM | 0.0284 s⁻¹ | 3.1e+06 M⁻¹ s⁻¹ | 85.5% | 0.941 µg/mL | 57.9% |
| SCT-Aa14(m/m) (antibody, V domains shown, Full IgG format: mouse IgG1 heavy chain constant region, mouse kappa light chain constant region) VH: QVQLQQSDAELVKPGASVKISCKVSSYTFTDHTIHWMKQRPEQGLEWIGYIFPRDGSTKYNEKFKGKATLTADKSSSTAYMQLNSLTSEDSAVYFCARWDYEGFDYWGQGTTLTVSS VL: DIVMTQSPATLSVTPGDRVSLSCRASQNISDYLHWYQQKSHESPRLLIKYASQSISGIPSRFSGSGSGSDFTLSINSVEPEDVGVYYCQNGHSFPPTFGSGTKLEIK | 2.52 ng/mL | 475 | 20.4 nM | 0.0376 s⁻¹ | 1.85e+06 M⁻¹ s⁻¹ | 75.1% | 2.34 µg/mL | 52.2% |
| SCT-Aa10(m/m) (antibody, V domains shown, Full IgG format: mouse IgG1 heavy chain constant region, mouse kappa light chain constant region) VH: QVQLQQSDAELVKPGASVKISCKVSGYTFTDHTIHWMKQRPEQGLEWIGYIFPRDGNTKYNEKFKGKATMTADKSSSTAYMQLNSLTSEDSAVYFCARWDYEGFDCWGQGTTLTVSS VL: DIVMTQSPATLSVTPGDRVSLSCRASQSISDYLHWYQQKSHESPRLLIKYASQSISGIPSRFSGSGSGSDFTLSINSVEPEDVGVYFCQNGHSFPPTFGSGTKLEIK | 2.57 ng/mL | 2960 | 9.56 nM | 0.0224 s⁻¹ | 2.34e+06 M⁻¹ s⁻¹ | 99.9% | 8.03 µg/mL | 82.9% |
| SCT-Aa15(h/h) (antibody, V domains shown, Full IgG format, chimeric: human IgG1 heavy chain constant region, human kappa light chain constant region) VH: QVQLQQSDAELVKPGPSVKISCKVSGSTFTDHTVHWMKQRPEQGLEWIGYVYPRDGSTRYNEKFKGKATLTADKSSSTAYMQLNSLTSEDSAVYFCARWDYEGFDYWGQGTTLTVSS VL: DIVMTQSPATLSVTPGDRVSLSCRASQNISDYLHWYQQKSHESPRLLIKYASQSISGIPSRFSGSGSGSDFTLSINSVEPEDVGVYYCQNGHSFPPTFGSGTKLKIK | 3.71 ng/mL | 141 | 1.19 nM | 0.0062 s⁻¹ | 5.21e+06 M⁻¹ s⁻¹ | 34.8% | 0.226 µg/mL | 32% |
| SCT-Aa08(m/m) (antibody, V domains shown, Full IgG format: mouse IgG1 heavy chain constant region, mouse kappa light chain constant region) VH: QVQLQQSDAELVKPGASVKISCKVSGYTFIDHTIHWMKQRPEQGLEWIGYIYPRIDSSKCNEKFKDKATLTADKSSNTAYIQLNSLTSEDSAVYFCARWDYEGFDYWGQGTTLTVSS VL: DIVMTQSPATLSVTPGDRVSLSCRASQSISDYLHWYQQKSHESPRLLIKYASQSISGIPSRFSGSGSGSDFTLSINSVEPEDVGVYYCQNGHSFPPTFGSGTKLEIK | 2.46 ng/mL | 1820 | 15.7 nM | 0.0527 s⁻¹ | 3.36e+06 M⁻¹ s⁻¹ | 99.9% | 0.682 µg/mL | 70.6% |
| SCT-Aa11(m/m) (antibody, V domains shown, Full IgG format: mouse IgG1 heavy chain constant region, mouse kappa light chain constant region) VH: QVQLQQSDAELVKPGASVKISCKVSGYTFTDHTIHWMKQRPEQGLEWIGYIFPRDGTTKFNEMFKGKATLTADKSSSTAYMELNSLTSEDSAVYFCARWDYEGFDYWGQGTTLTVSS VL: DIVMTQSPATLSVTPGDRVSLSCRASQSISDYLHWYQQKSHESPRLLIKYASQFISGIPSRFRGSGSGSDFTLSINSVEPEDVGVYYCQNGHSFPPTFGSGTKLEIK | 2.38 ng/mL | 1520 | 42 nM | 0.0945 s⁻¹ | 2.25e+06 M⁻¹ s⁻¹ | 99.9% |  | 34.6% |
| SCT-Aa01(h/h) (antibody, V domains shown, Full IgG format, chimeric: human IgG1 heavy chain constant region, human kappa light chain constant region) VH: DVQLQESGPGLVKPSQSLSLTCSVTGYSITSGYYWNWIRQFPGNKLEWMGYIRYDGSNNYNPSLKNRISITRDTSKNQFFLKLNSVTTEDTATYYCAPYDYDYAMDFWGQGTSVTVSS VL: DIQMTQSPASLSASVGETVTITCRASGNIHNYLAWYQQKQGKSPQLLVYNAKTLAHGVPSRFSGSGSGTQYSLKITSLQPEDFGTYYCQHFWSTPFTFGSGTKLEIK | 3.38 ng/mL | 411 | 43.4 nM | 0.0355 s⁻¹ | 819000 M⁻¹ s⁻¹ | 55.2% |  | 12.3% |
| SCT-Aa06(m/m) (antibody, V domains shown, Full IgG format: mouse IgG1 heavy chain constant region, mouse kappa light chain constant region) VH: EVQLQQSGPELVKPGNSVKISCKASGYSFTGYFMNWVMQSHGKSLEWIGRINPYNGDTFYNQKFKGKATLTVDKSSSTAHMELRSLTSEDSAVYYCARLDYTNYNSYPMDYWGQGTSVTVSS VL: DIQMTHTTSSLSASLGDRVTISCSASQGISNYLNWYLQKPDGTVKLLIYYTSNLHSGVPSRFSGSGSGTDFSLTISNLQPEDIATYYCQQYSKFPWTFGGGTKLEIK | 2.34 ng/mL | 4300 | 5.16 nM | 0.0163 s⁻¹ | 3.15e+06 M⁻¹ s⁻¹ | 99.9% |  | 91.6% |
